Target: T1, Antigen SdW1a (free peptide) (Homo sapiens)
T1 construct: Synthetic peptide derived from DBY/DEAD; A KLH-conjugated form (SdW1b) was also used in screening; also called the antigen; 22-mer peptide
T1 peptide: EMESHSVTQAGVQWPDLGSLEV
Assay: supernatant ELISA on the antigen, hybridoma supernatant
Protocol: Screening: Hybridoma cells were grown for 10 days at which point the number of positive hybridoma colonies was determined and after a further 3 days' incubation an aliquot of antibody supernatant was taken for screening. The supernatant was assayed for reactivity to the antigens SdW1a (free peptide—SEQ ID NO. 347) and SdW1b (KLH-peptide), firstly by antigen microarray using an IgG-specific secondary antibody, followed by supernatant ELISA to confirm any positive antibody-producing clones.

B1: monoclonal antibody SdW1 RE5.B7.F9b (antibody, mouse IgG2a, V domains shown)
VH: EVKVEESGGGLVQPGGSMKISCVASGFTFKNYWMNWVRQSPEKGLEWVAEIRSKSNNNEKHYAESVKGRFTISRDDFKSSVYLQMNNLRTEDTGIYYCTGGTFDYWGQGTTLTVSS
VL: DVVVTQTPLSLPVSLGDQASISCRSSHSLVHSDGNTYLHWYLQKPGQSPKLLIYKVSNRFSGVPDRFSGSGSGTDFTLKISRVEAEDLGVYFCSQTTHVPPYTFGGGTQLEIK
notes: Tested as hybridoma culture supernatant; also called clone RE5; RE5 antibody
Question: Does B1 bind?
Answer: Result: binds

— US20230133281A1 (CHROMOXYION, published 2023)
